Residue numbers refer to the chain shown, from its start. Numbers in names are those of the source.
B1: rPDE3A-RD: construct containing only the N-terminal portion of PDE3A1 (aa 146-484), regulatory domain (protein)
chain: MGLYLLRAGVRLPLAVALLAACCGGEALVQIGLGVGEDHLLSLPAAGVVLSCLAAATWLVLRLRLGVLMIALTSAVRTVSLISLERFKVAWRPYLAYLAGVLGILLARYVEQILPQSAEAAPREHLGSQLIAGTKEDIPVFKRRRRSSSVVSAEMSGCSSKSHRRTSLPCIPREQLMGHSEWDHKRGPRGSQSSGTSITVDIAVMGEAHGLITDLLADPSLPPNVCTSLRAVSNLLSTQLTFQAIHKPRVNPVTSLSENYTCSDSEESSEKDKLAIPKRLRRSLPPGLLRRVSSTWTTTTSATGLPTLEPAPVRRDRSTSIKLQEAPSSSPDSWNNPVM
B2: PDE3A1-F1004A: RFP-tagged PDE3A1 construct with F1004A substitution in the C-terminus yielding a catalytically inactive, dominant-negative protein (SEQ ID NO:2) (protein, listed as Homo sapiens)
chain: MAVPGDAARVRDKPVHSGVSQAPTAGRDCHHRADPASPRDSGCRGCWGDLVLQPLRSSRKLSSALCAGSLSFLLALLVRLVRGEVGCDLEQCKEAAAAEEEEAAPGAEGGVFPGPRGGAPGGGARLSPWLQPSALLFSLLCAFFWMGLYLLRAGVRLPLAVALLAACCGGEALVQIGLGVGEDHLLSLPAAGVVLSCLAAATWLVLRLRLGVLMIALTSAVRTVSLISLERFKVAWRPYLAYLAGVLGILLARYVEQILPQSAEAAPREHLGSQLIAGTKEDIPVFKRRRRSSSVVSAEMSGCSSKSHRRTSLPCIPREQLMGHSEWDHKRGPRGSQSSGTSITVDIAVMGEAHGLITDLLADPSLPPNVCTSLRAVSNLLSTQLTFQAIHKPRVNPVTSLSENYTCSDSEESSEKDKLAIPKRLRRSLPPGLLRRVSSTWTTTTSATGLPTLEPAPVRRDRSTSIKLQEAPSSSPDSWNNPVMMTLTKSRSFTSSYAISAANHVKAKKQSRPGALAKISPLSSPCSSPLQGTPASSLVSKISAVQFPESADTTAKQSLGSHRALTYTQSAPDLSPQILTPPVICSSCGRPYSQGNPADEPLERSGVATRTPSRTDDTAQVTSDYETNNNSDSSDIVQNEDETECLREPLRKASACSTYAPETMMFLDKPILAPEPLVMDNLDSIMEQLNTWNFPIFDLVENIGRKCGRILSQVSYRLFEDMGLFEAFKIPIREFMNYFHALEIGYRDIPYHNRIHATDVLHAVWYLTTQPIPGLSTVINDHGSTSDSDSDSGFTHGHMGYVFSKTYNVTDDKYGCLSGNIPALELMALYVAAAMHDYDHPGRTNAFLVATSAPQAVLYNDRSVLENHHAAAAWNLFMSRPEYNFLINLDHVEFKHFRFLVIEAILATDLKKHFDFVAKFNGKVNDDVGIDWTNENDRLLVCQMCIKLADINGPAKCKELHLQWTDGIVNEFYEQGDEEASLGLPISPFMDRSAPQLANLQESAISHIVGPLCNSYDSAGLMPGKWVEDSDESGDTDDPEEEEEEAPAPNEEETCENNESPKKKTFKRRKIYCQITQHLLQNHKMWKKVIEEEQRLAGIENQSLDQTPQSHSSEQIQAIKEEEEEKGKPRGEEIPTQKPDQ
modifications: RFP tag; (1)..(1141) conceptual translation of the longest ORF of the PDE3A gene with a mutation at amino acid position 1004 in which phenylalanine is changed to alanine; presence of alanine at amino acid 1004 inactivates phosphodiesterase activity
B3: M3: Flag-tagged rhPDE3A1 phosphorylation site mutant S428A (protein, UniProt Q14432 1-1141, looked up, variant S428A)
cGMP-inhibited 3',5'-cyclic …: B2 chain with S428A, A1004F
modifications: Flag tag
notes: Flag-tagged rhPDE3A1 phosphorylation site mutant S428A
B4: M1: Flag-tagged rhPDE3A1 phosphorylation site mutant S292A/293A (protein, UniProt Q14432 1-1141, looked up, variant S292A S293A)
cGMP-inhibited 3',5'-cyclic …: B2 chain with S292A, S293A, A1004F
modifications: Flag tag
notes: Flag-tagged rhPDE3A1 phosphorylation site mutant S292A/293A
B5: M2: Flag-tagged rhPDE3A1 phosphorylation site mutant S312A (protein, UniProt Q14432 1-1141, looked up, variant S312A)
cGMP-inhibited 3',5'-cyclic …: B2 chain with S312A, A1004F
modifications: Flag tag
notes: Flag-tagged rhPDE3A1 phosphorylation site mutant S312A
B6: M4: Flag-tagged rhPDE3A1 phosphorylation site mutant S438A (protein, UniProt Q14432 1-1141, looked up, variant S438A)
cGMP-inhibited 3',5'-cyclic …: B2 chain with S438A, A1004F
modifications: Flag tag
notes: Flag-tagged rhPDE3A1 phosphorylation site mutant S438A
B7: M5: Flag-tagged rhPDE3A1 phosphorylation site mutant S292A/293A/312A/438A (protein, UniProt Q14432 1-1141, looked up, variant S292A S293A S312A S438A)
cGMP-inhibited 3',5'-cyclic …: B2 chain with S292A, S293A, S312A, S438A, A1004F
modifications: Flag tag
notes: Flag-tagged rhPDE3A1 phosphorylation site mutant S292A/293A/312A/438A

Experiments:
rSERCA2 = biological target: T1, rSERCA2 (Homo sapiens, UniProt P16615); assay: Co-immunoprecipitation of Flag-tagged rhPDE3A variants and rSERCA2 after incubation with or without rPKAc; format: binding; details: for PKA-stimulated (phosphorylation-dependent) interaction with SERCA2: serine-to-alanine mutants of rhPDE3A1, 50 units rPKAc, co-IP
T1 construct: purchased Abnova
Excerpt: FIG. 11 a-d. rPKAc phosphorylates rhPDE3A and increases its interactions rSERCA2. A. Schemes representing PDE3A1 [NHR1: trans-membrane domain (obligatory membrane insertion domain); NHR2: membrane association domain; CCR: conserved C-terminal catalytic region; P1-4: predicted PKA phosphorylation sites; rhPDE3A and truncated mutants (PDE3A2, PDE3A-A510, PDE3A-RD), and rSERCA2 (1042 amino acids, 3-77 cation transporter N-terminal; 93-341, E1-E2 ATPase; 345-724, haloacid dehydrogenase like hydrolase; 819-991, cation transporter ATPase C-terminus). B. Putative PKA phosphorylation sites of PDE3A designated with asterisks. C-D. Purified rSERCA2 (150 ng) (Abnova) and 50 units of Flag-tagged rhPDE3A1 truncated mutants [rhPDE3A2, rhPDE3A-A510, and similarly expressed rhPDE3A-RD (aa 146-484)](FIG. 11D) or mutants lacking the PKA putative phosphorylation site mutants of rhPDE3A1 [Ser292/293A (M1), S312A (M2), S428A (M3), S438A (M4), S292A/293A/312A/438A (M5)](FIG. 11C) were incubated with or without 50 units of rPKAc at 30° C. for 30 min and 5 mM MgCl2 in phosphorylation buffer. Proteins were immunoprecipitated with anti-Flag antibodies and immunoblotted with anti-SERCA2 (upper panel), or anti-Flag (middle panel). Lower panel: input control (SERCA2). Shown are representative blots from three independent experiments. (RD: regulatory domain; AA: amino acid).
Flag-tagged rhPDE3A1 and its phosphorylation site mutants [rhPDE3A1-S292A/293A (M1), rhPDE3A1-S312A (M2), rhPDE3A1-S428A (M3), rhPDE3A1-S438A (M4), rhPDE3A1-S292A/293A/312A/438A (M5) open reading frame [accession #NP_000912] was synthesized by Genscript, Inc (Piscataway, N.J.), subcloned into pAcSG2 baculoviral expression vector. Flag-tagged rhPDE3A variants and phosphorylation site mutants were expressed in SF21 cells [(10-20)×106 SF21 cells/75-cm2 flask] as described (19,20). SF21 cells were harvested, sedimented (10 min, 1000×g, 4° C.), washed twice with ice-cold PBS, resuspended, homogenized (in a Dounce homogenizer) in buffer B and sonicated […]. A comparison of the translated sequences of human AKAP18γ (AC NP_057461 and AK300587; 348 aa residues) and rat AKAP18δ (3) (AC QJP77; 352 aa residues) indicate that eight of the first twelve aa residues of human AKAP18γ and rat AKAP18δ are identical, and that the proteins are homologous (˜74% aa identity). SF21 cell extracts, which contained his-tagged-rAKAP18δ, were prepared as described above. Flag-tagged rhPDE3A1 (usually 50 arbitrary (u) units) was incubated (30 min, 30° C.) with rAKAP18δ (200 μl, containing 50 ng of recombinant protein), with or without different concentrations of rPKAc (final volume, 300 μl) in buffer B containing 2 mM DTT and 200 μM ATP. Reactions were stopped by dilution of reaction mixtures to 1.0 ml with buffer B containing 1 mg/ml SF21 cell lysates, and cleared as described above (cf ‘Immunoprecipitation and immunoblotting’ subsection). His-tagged rAKAP18δ was immunoprecipitated with anti-his Mab Mag-beads (Genscript). Anti-his Mab Mag beads-bound immunoprecipitates were washed, collected, and anti-his Mab Mag-beads-bound proteins were eluted by boiling in Laemmli's SDS buffer (100 μl) and samples (15 μl) of immunoprecipitated proteins as well as of reaction mixtures (‘input proteins’) were immunoblotted with indicated antibodies as described above.

[1] = test system: neonatal rat ventricular myocytes; assay: Hypertrophy of neonatal rat ventricular myocytes (PDE3 inhibitor treatment or transfection with dominant-negative constructs, with or without norepinephrine); format: cell-based
Excerpt: FIG. 5. Anti-hypertrophic actions of PDE3A1-selective targeting in neonatal rat ventricular myocytes.
In contrast, expression of the PDE3A1 dominant negative has no pro-hypertrophic effect, and actually blocks the hypertrophic responses to norepinephrine.
In neonatal rat ventricular myocytes, conventional PDE3 inhibition promotes cellular hypertrophy, which may be associated with adverse consequences in heart failure. We questioned what effect PDE3A1-selective inhibition would have. […] The F1004A substitution is a change in the amino acid sequence of PDE3A1 at amino acid position 1004 from a phenylalanine to an alanine. We transfected neonatal rat ventricular myocytes with this dominant-negative construct to competitively block the protein-protein interactions that localize PDE3A1 to specific intracellular microdomains. […] To our knowledge, this is the first direct evidence that conventional PDE3 inhibition and isoform-selective targeting have different effects in cardiac myocytes, and that some of the adverse consequences of nonselective PDE3 inhibition may be averted by isoform-selective targeting involving protein-protein interactions.

T1 sequence (P16615 whole entry): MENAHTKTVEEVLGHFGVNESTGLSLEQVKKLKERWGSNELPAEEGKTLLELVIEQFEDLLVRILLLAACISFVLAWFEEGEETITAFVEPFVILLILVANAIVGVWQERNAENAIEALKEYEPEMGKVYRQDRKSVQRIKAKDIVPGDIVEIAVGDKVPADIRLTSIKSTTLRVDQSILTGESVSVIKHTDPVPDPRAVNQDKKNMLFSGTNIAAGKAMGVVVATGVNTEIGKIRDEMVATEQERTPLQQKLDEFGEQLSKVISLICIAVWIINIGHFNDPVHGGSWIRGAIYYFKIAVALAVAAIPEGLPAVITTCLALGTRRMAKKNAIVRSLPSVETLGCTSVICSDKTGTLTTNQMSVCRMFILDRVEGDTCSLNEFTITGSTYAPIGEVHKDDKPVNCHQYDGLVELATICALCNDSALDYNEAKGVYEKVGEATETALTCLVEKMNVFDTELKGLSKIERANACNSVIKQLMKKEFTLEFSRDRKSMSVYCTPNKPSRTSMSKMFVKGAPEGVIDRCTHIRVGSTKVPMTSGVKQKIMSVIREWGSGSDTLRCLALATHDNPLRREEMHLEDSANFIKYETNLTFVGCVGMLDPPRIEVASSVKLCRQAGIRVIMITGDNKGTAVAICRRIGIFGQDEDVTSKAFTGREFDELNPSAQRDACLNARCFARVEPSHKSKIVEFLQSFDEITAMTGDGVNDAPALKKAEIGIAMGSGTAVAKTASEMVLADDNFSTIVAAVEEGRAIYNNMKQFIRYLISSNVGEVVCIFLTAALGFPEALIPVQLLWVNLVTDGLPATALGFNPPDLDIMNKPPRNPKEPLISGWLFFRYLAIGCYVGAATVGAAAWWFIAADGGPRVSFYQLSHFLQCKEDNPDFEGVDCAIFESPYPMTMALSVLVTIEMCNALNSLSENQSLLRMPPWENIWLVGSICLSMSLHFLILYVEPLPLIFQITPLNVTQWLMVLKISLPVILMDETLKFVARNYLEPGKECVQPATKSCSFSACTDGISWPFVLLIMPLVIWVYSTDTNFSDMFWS

| Molecule | PKA-stimulated (phosphorylation-dependent) interaction with SERCA2 (rSERCA2) | also measured |
| --- | --- | --- |
| B1 | – | co-immunoprecipitation of rSERCA2 with construct (rSERCA2; truncated rhPDE3A constructs): co-immunoprecipitated |
| B2 | – | hypertrophic response to norepinephrine ([1]; neonatal rat ventricular myocytes transfected with construct, norepinephrine): blocked the hypertrophic response to norepinephrine; cellular hypertrophy ([1]; neonatal rat ventricular myocytes, treatment or transfection alone): did not induce cellular hypertrophy |
| B3 | slightly decreased | – |
| B4 | markedly diminished | – |
| B5 | slightly decreased | – |
| B6 | had no effect | – |
| B7 | markedly diminished | – |
